Results reported in patent US20160176924A1, “MODIFIED PEPTIDES AS POTENT INHIBITORS OF THE PSD-95/NMDA RECEPTOR INTERACTION” (priority 2008, published 2016).

T1: HIS-PDZ2 protein (PSD-95 PDZ2, residues 155-249, with tag …) (human), P78352
T1 chain: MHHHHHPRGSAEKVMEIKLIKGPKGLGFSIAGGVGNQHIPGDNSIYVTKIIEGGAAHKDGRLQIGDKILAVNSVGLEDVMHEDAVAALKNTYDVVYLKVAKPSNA


What was measured:
[1] = target: T1, HIS-PDZ2 protein (PSD-95 PDZ2, residues …); assay: FP competition, fluorescent NR2B probe
[2] = target: T2, HIS-PDZ1-2 protein (PSD-95 PDZ1-2 tandem, residues 61-249, with tag …) (human), P78352; assay: FP competition, fluorescent NR2B probe
[3] = target: T3, HIS-PDZ1 protein (PSD-95 PDZ1, residues 61-151, with tag …) (human), P78352; assay: FP competition, fluorescent NR2B probe
[4] = target: T1, HIS-PDZ2 protein (PSD-95 PDZ2, residues …); assay: FP competition, fluorescent NR2B probe; truncation series of NR2B peptide (1)
[5] = target: T3, HIS-PDZ1 protein (PSD-95 PDZ1, residues …); assay: as above
[6] = target: T2, HIS-PDZ1-2 protein (PSD-95 PDZ1-2 …); assay: ITC; monomeric IETAV, no linker

| Ki [1] [µM] | Ki [2] [µM] | Ki [3] [µM] | fold increase in Ki [4] [fold] | fold increase in Ki [5] [fold] | Kd [6] [µM] | Binder |
| --- | --- | --- | --- | --- | --- | --- |
| 28 | 28 | 56 | 6.8 | 3.1 |  | ESDV (modifications not checked) [ESDV (8)] |
| 1.7 | 2.5 |  |  |  | 1.9 | IETAV (modifications not checked) [IETAV (82)] |
